Experimental findings from publication PMC6226434 are described below.

The target of experiment [1] is human ETB receptor L252H I254T double mutant (human) (UniProt P24530).
In experiment [2] the target is human ETB receptor, wild type, codon-optimized construct with an internal FLAG epitope tag (human) (UniProt P24530).
For experiment [3], the target named is thermostabilized human ETB receptor (ETB-Y5), construct with an internal FLAG epitope tag (human) (UniProt P24530).
For experiment [4], the target named is human ETB receptor, wild type, codon-optimized construct with an internal FLAG epitope tag (human) (UniProt P24530). This is another data set of the same source.
The target of experiment [5] is ETB-Y5 with SmBiT at the C-terminus (thermostabilized human ETB receptor) (human) (UniProt P24530).
Experiment [6] deals with ETB-SmBiT construct (human ETB receptor with SmBiT at the C-terminus) (human) (UniProt P24530).
Experiment [7] addresses T1, full-length human ETA receptor construct with an internal FLAG epitope tag (human) (UniProt P25101).
T1 sequence: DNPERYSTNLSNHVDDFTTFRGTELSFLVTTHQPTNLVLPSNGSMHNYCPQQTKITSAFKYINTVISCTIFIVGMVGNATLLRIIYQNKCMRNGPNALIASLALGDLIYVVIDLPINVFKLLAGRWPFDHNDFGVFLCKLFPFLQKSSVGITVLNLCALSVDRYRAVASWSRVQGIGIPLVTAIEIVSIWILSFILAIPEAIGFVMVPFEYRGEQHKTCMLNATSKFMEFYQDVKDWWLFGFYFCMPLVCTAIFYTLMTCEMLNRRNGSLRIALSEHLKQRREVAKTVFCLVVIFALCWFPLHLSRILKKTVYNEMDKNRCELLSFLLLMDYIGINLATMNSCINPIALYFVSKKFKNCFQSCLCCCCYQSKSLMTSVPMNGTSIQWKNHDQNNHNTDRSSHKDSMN

Experiment [8] concerns the target T2, ETA-SmBiT construct (human ETA receptor with SmBiT at the C-terminus) (human) (UniProt P25101).
T2 sequence: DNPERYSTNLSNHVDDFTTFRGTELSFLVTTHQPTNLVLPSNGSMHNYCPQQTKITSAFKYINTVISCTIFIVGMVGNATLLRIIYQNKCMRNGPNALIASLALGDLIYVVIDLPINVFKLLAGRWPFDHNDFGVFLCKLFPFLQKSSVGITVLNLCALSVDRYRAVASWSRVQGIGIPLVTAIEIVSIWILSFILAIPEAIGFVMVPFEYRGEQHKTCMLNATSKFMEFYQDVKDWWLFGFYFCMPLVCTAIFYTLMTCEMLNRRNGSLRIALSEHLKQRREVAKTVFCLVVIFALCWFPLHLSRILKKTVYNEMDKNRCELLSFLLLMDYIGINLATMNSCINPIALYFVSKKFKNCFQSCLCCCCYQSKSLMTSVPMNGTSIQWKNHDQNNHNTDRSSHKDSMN

As for “IRL1620 (N-Suc-[E9, A11, 15] ET-1(8-21)) (peptide)”, the AP-TGFα release (TGFα shedding assay), EC50 turned out to be 320 pM in experiment [1], 920 pM in experiment [3] and 110 pM in experiment [4]. This molecule also had an AP-TGFα release (TGFα shedding assay), EC50; experiment with the double mutant in experiment [2] of 140 pM. In addition, the figures for the AP-TGFα release (TGFα shedding assay), Emax relative to ET-1 in experiment [3] and in experiment [4] were 83.6% and 87.6%, respectively. The β-arrestin recruitment (NanoBiT, receptor-SmBiT with m12), EC50 in experiment [5] was 15100 pM; in experiment [6], 3100 pM. For the same molecule, the β-arrestin recruitment (NanoBiT, receptor-SmBiT with m12), Emax relative to ET-1 in experiment [5] worked out at 85.4%; in experiment [6], 87.3%.

B1: endothelin-3 (peptide)
peptide: CTCFTYKDKECVYYCHLDIIW
As for B1, the AP-TGFα release (TGFα shedding assay), EC50 in experiment [7] is 650 pM; in experiment [3], 77 pM; in experiment [4], 130 pM. Moreover, the AP-TGFα release (TGFα shedding assay), Emax relative to ET-1 in experiment [7] is 101%; in experiment [3], 101%; in experiment [4], 100%. Besides, the results for the β-arrestin recruitment (NanoBiT, receptor-SmBiT with m12), EC50 in experiment [8], in experiment [5] and in experiment [6] were 10800 pM, 3500 pM and 3300 pM, respectively. For the same molecule, the β-arrestin recruitment (NanoBiT, receptor-SmBiT with m12), Emax relative to ET-1 in experiment [8] came to 81.1%; in experiment [5], 105%; in experiment [6] it was 105%.
